Test results taken from paper PMC10474274, “Structural insights into mechanisms of Argonaute protein-associated NADase activation in bacterial immunity”.
One block for each molecule: values may come before it.

What was measured:
[1] = target: TIR-APAZ protein from Maribacter polysiphoniae (Maribacter polysiphoniae); assay: cryo-EM structure; TIR-APAZ/Ago with gRNA and target ssDNA (1:1.5:2), tetramer of heterodimers, 2.95 Å
[2] = target: TIR-APAZ/Ago complex from Maribacter polysiphoniae (Maribacter polysiphoniae); assay: as above
[3] = target: Ago protein from Maribacter polysiphoniae (Maribacter polysiphoniae); assay: as above
[4] = target: SIR2-APAZ;short prokaryotic Ago (SIR2-APAZ system) (Geobacter sulfurreducens;Geobacter …, UniProt Q74DF6;Q74DF5 1-587;1-473, |); assay: cryo-EM; metal ion at 5'-phosphate; 2 mM MgCl2; heterodimer; 3.0 A; cryo-EM: complex:gRNA:target DNA 1:1.5:2; TIR system 25 mM Tris-HCl pH 7.5, 150 mM NaCl, 2 mM DTT, 2 mM MgCl2; SIR2 system 25 mM HEPES pH 7.9, 150 mM NaCl, 2 mM DTT, 2 mM MgCl2 (gel-filtration buffers); native PAGE conditions not in material; settings: protein: recombinant;recombinant; tags: His-SUMO (N-terminal); copies: 1;1; about 25 bp visible
SIR2-APAZ;short prokaryotic Ago (SIR2-APAZ system), sequence (chain, as listed by the source |, chain 1 of 2): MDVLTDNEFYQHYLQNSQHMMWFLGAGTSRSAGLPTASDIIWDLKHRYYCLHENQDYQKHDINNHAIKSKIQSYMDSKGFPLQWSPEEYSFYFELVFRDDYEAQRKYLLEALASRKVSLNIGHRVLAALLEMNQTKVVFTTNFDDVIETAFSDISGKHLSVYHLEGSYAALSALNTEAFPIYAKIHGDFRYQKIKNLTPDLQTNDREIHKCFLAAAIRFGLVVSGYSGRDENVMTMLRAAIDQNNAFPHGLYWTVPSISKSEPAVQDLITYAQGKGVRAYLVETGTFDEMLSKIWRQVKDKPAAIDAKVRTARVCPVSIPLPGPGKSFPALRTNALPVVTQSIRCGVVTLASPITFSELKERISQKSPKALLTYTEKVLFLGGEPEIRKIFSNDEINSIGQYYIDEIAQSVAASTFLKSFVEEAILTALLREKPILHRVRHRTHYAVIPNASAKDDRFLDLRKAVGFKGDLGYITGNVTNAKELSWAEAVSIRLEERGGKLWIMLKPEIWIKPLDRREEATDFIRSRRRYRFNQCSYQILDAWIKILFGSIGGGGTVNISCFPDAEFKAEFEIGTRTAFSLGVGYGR
SIR2-APAZ;short prokaryotic Ago (SIR2-APAZ system), sequence (chain, as listed by the source |, chain 2 of 2): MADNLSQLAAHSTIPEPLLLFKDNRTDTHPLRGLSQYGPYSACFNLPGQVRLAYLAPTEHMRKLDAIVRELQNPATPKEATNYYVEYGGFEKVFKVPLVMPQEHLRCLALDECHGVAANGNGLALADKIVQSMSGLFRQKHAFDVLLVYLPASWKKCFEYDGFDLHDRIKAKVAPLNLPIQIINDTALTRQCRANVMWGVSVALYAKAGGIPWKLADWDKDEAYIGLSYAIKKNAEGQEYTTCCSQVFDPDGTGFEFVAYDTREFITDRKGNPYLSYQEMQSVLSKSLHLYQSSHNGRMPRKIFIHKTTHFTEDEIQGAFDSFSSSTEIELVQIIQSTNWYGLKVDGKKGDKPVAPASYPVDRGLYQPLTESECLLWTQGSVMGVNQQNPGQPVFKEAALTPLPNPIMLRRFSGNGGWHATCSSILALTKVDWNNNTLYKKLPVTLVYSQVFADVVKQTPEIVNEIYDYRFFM

Molecule: TIR-APAZ/Ago complex from Maribacter polysiphoniae
stoichiometry N [2]: 4

B1: gRNA + target ssDNA (SIR2-APAZ/Ago) (DNA:RNA)
RNA: AUAAUGGUUUCUUAGACGUCGUUUUAGAGCUGUGUUGUUUCG
DNA: CGAAACAACACAGCTCTAAAACGACGTCTAAGAAACCATTAT
modifications: 5'-phosphate on gRNA
binding result [4]: binds

Other lines, results leading:

stoichiometry N [1]: 4
Molecule: TIR-APAZ protein from Maribacter polysiphoniae (natural protein)

stoichiometry N [3]: 2
Molecule: Ago protein from Maribacter polysiphoniae (natural protein)
